Biological target: T1, human CD127 (IL-7R), as used in the scFv binding experiments (human, UniProt P16871 21-239, limits assumed)
T1 construct: also called IL-7Ralpha; interleukin-7 receptor subunit alpha
T1 sequence: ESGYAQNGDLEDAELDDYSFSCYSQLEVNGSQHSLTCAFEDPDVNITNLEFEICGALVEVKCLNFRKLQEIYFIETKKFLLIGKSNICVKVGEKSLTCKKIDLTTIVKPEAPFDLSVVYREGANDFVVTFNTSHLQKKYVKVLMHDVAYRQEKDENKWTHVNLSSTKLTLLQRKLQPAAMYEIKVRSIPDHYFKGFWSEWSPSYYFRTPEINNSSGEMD
Assay: scFv binding experiment, given as ED50; method and format not stated (FIG. 1A)

B1: scFv703-Fc (VL-VH) (Fc fusion)
scFv: DIVLTQSPSSLPVTPGEPASISCRSSQSLLTVKGITSLYWFLQKPGQSPKLLIYRMSNRDSGVPDRFSGSGSETDFTLKISRVEAEDVGTYYCAQFLEYPHTFGAGTKLELKGGGGSGGGGSGGGGSAVQLVESGGGLVQPGGSLKITCAASGFTFTNAAMYWVRQAPGKGLEWVARIRTKANNYATYYADSVKGRFTISRDDSKSTVYLQMDSVKTEDTATYYCIVVVLTTTRDYFDYWGQGVLVTVSS
notes: The Fc is not described; also called scFv703LH; VL-VH scFv of OSE703; not shown: The Fc part implied by the name scFv703-Fc, and any hinge or linker to it
- EC50: 0.539 µg/mL

B2: scFv703-Fc (VH-VL) (Fc fusion)
scFv: AVQLVESGGGLVQPGGSLKITCAASGFTFTNAAMYWVRQAPGKGLEWVARIRTKANNYATYYADSVKGRFTISRDDSKSTVYLQMDSVKTEDTATYYCIVVVLTTTRDYFDYWGQGVLVTVSSGGGGSGGGGSGGGGSDIVLTQSPSSLPVTPGEPASISCRSSQSLLTVKGITSLYWFLQKPGQSPKLLIYRMSNRDSGVPDRFSGSGSETDFTLKISRVEAEDVGTYYCAQFLEYPHTFGAGTKLELK
notes: The Fc is not described; also called scFv703HL; VH-VL scFv of OSE703; not shown: The Fc part implied by the name scFv703-Fc, and any hinge or linker to it
- EC50: 3.32 µg/mL

Source: US20230087125A1 (Memorial Sloan Kettering, published 2023)
